Test [1] concerns the target isolated CARF domain (1–169 aa) of StCsm6 (Streptococcus thermophilus DGCC8004). The experiment in a line: SEC. A general note: In gel filtration, larger molecules generally elute earlier.
For test [2], the target named is isolated HEPN domain (172–428 aa) of StCsm6 (Streptococcus thermophilus DGCC8004). Kind of test: SEC.

Regarding “isolated CARF domain (1–169 aa) of StCsm6 (domain or fragment)”, in test [1], the stoichiometry N – broadly, the number of molecules, sites or subunits per partner or assembly – stood at 2.

The substance “isolated HEPN domain (172–428 aa) of StCsm6 (domain or fragment)” had a stoichiometry N in test [2] of 2.

These data come from article PMC7498309.
